{
  "source": "patent US20050282743A1",
  "about": "“Molecular interactions in cells” (Arbor Vita Corporation, priority 2001, published 2005)",
  "binders": {"B1": {"name": "NMDA Glutamate Receptor 2C (cysteine-free) (peptide)", "peptide": "TQGFPGPATWRRISSLESEV", "modifications": "not checked"}, "B2": {"name": "a-actinin 2 (peptide)", "peptide": "VPGALDYAAFSSALYGESDL", "modifications": "not checked"}, "B3": {"name": "KIA 1481 (peptide)", "peptide": "PIPAGGCTFSGIFPTLTSPL", "modifications": "not checked"}, "B4": {"name": "TAX (peptide)", "peptide": "QISPGGLEPPSEKHFRETEV", "modifications": "not checked"}, "B5": {"name": "CSPG4 (chondroitin sulfae proteoglycan 4, melanoma-associated) (peptide)", "peptide": "ELLQFCRTPNPALKNGQYWV", "modifications": "not checked"}, "B6": {"name": "MINT-1 (peptide)", "peptide": "KTMPAAMYRLLTAQEQPVYI", "modifications": "not checked"}, "B7": {"name": "alpha-2A Adrenergic receptor (peptide)", "peptide": "HDFRRAFKKILARGDRKRIV", "modifications": "not checked"}, "B8": {"name": "ephrin B2 (peptide)", "peptide": "ILNSIQVMRAQMNQIQSVEV", "modifications": "not checked"}, "B9": {"name": "LPAP (peptide)", "peptide": "AWDDSARAAGGQGLHVTAL", "modifications": "not checked"}},
  "test_in_all_cases": "G' assay",
  "key": {"[1]": {"target": "T1, GST-PTN-4 PDZ domain 1 (Homo sapiens (Human)), P29074", "T1 chain": "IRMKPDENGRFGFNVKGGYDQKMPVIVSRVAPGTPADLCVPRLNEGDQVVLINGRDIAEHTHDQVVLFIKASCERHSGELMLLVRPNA"}, "[2]": {"target": "T2, GST-KIAA0380 PDZ domain 1 (Homo sapiens (Human)), O15085", "T2 chain": "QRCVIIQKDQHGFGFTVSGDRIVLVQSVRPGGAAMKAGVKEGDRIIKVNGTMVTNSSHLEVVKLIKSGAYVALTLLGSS"}, "[3]": {"target": "T3, GST-FLJ11215 PDZ domain 1 (Mus musculus (Mouse)), O88952", "T3 chain": "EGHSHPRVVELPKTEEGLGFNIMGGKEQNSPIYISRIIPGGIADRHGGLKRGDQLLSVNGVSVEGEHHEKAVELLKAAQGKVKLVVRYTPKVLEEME"}, "[4]": {"target": "T4, GST-LIMK1 PDZ domain 1 (Homo sapiens (Human)), P53667", "T4 chain": "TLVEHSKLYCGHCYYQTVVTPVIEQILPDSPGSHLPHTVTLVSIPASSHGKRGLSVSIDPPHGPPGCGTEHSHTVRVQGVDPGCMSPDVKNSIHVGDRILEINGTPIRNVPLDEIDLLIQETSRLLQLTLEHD"}, "[5]": {"target": "T5, GST-KIAA1095 PDZ domain 1 (Homo sapiens (Human)), Q9UPQ7", "T5 chain": "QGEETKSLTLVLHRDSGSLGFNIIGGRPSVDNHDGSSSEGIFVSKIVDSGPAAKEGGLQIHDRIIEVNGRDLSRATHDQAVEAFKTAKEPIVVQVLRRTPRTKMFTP"}, "[6]": {"target": "T6, GST-rat SHANK 3 PDZ domain 1 (rat), Q9JLU4", "T6 chain": "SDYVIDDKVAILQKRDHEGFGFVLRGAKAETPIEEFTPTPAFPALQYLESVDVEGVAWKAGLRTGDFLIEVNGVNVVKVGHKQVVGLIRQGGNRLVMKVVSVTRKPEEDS"}, "[7]": {"target": "GST-KIAA0316 PDZ domain 1 (Homo sapiens (Human)), Q14CM0", "sequence (Q14CM0 72-159)": "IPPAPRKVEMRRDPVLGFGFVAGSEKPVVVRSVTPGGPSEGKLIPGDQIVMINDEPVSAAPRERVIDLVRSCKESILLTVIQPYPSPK"}, "[8]": {"target": "T7, GST-PDZK1 PDZ domains 2, 3, 4, Q5T2W1", "T7 chain": "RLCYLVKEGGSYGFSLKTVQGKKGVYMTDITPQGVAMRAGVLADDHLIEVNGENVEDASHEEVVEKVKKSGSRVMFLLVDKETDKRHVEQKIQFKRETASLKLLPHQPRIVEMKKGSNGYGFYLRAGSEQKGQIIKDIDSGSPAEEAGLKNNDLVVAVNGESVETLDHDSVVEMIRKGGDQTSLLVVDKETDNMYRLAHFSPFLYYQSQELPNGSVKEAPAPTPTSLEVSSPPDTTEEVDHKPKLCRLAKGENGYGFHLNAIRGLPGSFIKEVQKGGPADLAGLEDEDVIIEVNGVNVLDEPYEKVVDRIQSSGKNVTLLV"}, "[9]": {"target": "T8, GST-Shank 3 PDZ domain 1 (human (hypothetical, computer cloned)), Q9BYB0", "T8 chain": "T6 chain with I11V, K59R, G86A, S110G"}, "[10]": {"target": "T9, GST-MUPP1 PDZ domain 2 (Homo sapiens (Human)), O75970", "T9 chain": "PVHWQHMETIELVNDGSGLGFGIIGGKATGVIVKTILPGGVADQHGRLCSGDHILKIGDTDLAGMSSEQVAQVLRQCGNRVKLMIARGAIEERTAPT"}, "[11]": {"target": "T10, GST-DVL2 PDZ domain 1 (Homo sapiens (Human)), O14641", "T10 chain": "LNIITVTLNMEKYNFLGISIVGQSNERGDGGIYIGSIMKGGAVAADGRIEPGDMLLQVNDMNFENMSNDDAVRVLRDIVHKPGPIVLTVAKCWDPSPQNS"}, "[12]": {"target": "T11, GST-MUPP1 PDZ domain 3 (Homo sapiens (Human)), O75970", "T11 chain": "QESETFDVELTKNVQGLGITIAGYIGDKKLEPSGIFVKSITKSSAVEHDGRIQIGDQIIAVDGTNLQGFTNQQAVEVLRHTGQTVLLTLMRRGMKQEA"}, "[13]": {"target": "T12, GST-KIAA1284 PDZ domain 1 (Homo sapiens (Human)), Q9ULD6", "T12 chain": "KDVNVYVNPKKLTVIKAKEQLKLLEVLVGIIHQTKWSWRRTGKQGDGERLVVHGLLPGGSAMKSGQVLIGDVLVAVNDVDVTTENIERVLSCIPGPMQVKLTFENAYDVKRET"}, "[14]": {"target": "T13, GST-MUPP1 PDZ domain 6 (Homo sapiens (Human)), O75970", "T13 chain": "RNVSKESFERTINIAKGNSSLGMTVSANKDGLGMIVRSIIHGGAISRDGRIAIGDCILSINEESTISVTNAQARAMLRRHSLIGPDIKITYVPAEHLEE"}, "[15]": {"target": "GST-CARD14 PDZ domain 1 (Homo sapiens (Human)), Q9BXL6", "sequence (Q9BXL6 565-664)": "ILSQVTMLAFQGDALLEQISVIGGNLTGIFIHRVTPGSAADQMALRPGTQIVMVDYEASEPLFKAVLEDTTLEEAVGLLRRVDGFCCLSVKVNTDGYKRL"}, "[16]": {"target": "T14, GST-ZO-3 PDZ domain 2 (Homo sapiens (Human)), O95049", "T14 chain": "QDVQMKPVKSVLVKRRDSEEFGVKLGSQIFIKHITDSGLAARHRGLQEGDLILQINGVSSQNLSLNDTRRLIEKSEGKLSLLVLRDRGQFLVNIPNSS"}, "[17]": {"target": "T15, GST-X-11 beta PDZ domain 1 (Rattus norvegicus (Rat)), O35431", "T15 chain": "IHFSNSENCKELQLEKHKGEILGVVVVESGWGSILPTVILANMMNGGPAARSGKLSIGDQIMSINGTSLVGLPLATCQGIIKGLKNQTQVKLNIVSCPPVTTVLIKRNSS"}, "[18]": {"target": "T16, GST-Atrophin-1 Interacting Protein PDZ domain 6 (Rattus norvegicus (Rat)), O88382", "T16 chain": "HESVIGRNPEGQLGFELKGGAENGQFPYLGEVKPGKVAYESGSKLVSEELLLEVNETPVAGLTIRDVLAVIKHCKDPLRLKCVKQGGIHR"}},
  "note": "Changes are numbered by the printed parent chain. Where two headings read alike, the source gives them in different places. Also: key of the grades not given here.",
  "data": [
    {"binder": "B1", "values": [
      {"measurement": "Classification", "setting": "[1]", "value": 2, "unit": "A450 class"},
      {"measurement": "Classification", "setting": "[2]", "value": 1, "unit": "A450 class"},
      {"measurement": "Classification", "setting": "[3]", "value": 1, "unit": "A450 class"},
      {"measurement": "Classification", "setting": "[4]", "value": 1, "unit": "A450 class"},
      {"measurement": "Classification", "setting": "[5]", "value": 1, "unit": "A450 class"}
    ]},
    {"binder": "B2", "values": [
      {"measurement": "Classification", "setting": "[2]", "value": 1, "unit": "A450 class"},
      {"measurement": "Classification", "setting": "[6]", "value": 1, "unit": "A450 class"},
      {"measurement": "Classification", "setting": "[7]", "value": 1, "unit": "A450 class"}
    ]},
    {"binder": "B3", "values": [
      {"measurement": "Classification", "setting": "[8]", "value": 2, "unit": "A450 class"},
      {"measurement": "Classification", "setting": "[9]", "value": 3, "unit": "A450 class"},
      {"measurement": "Classification", "setting": "[5]", "value": 1, "unit": "A450 class"}
    ]},
    {"binder": "B4", "values": [
      {"measurement": "Classification", "setting": "[1]", "value": 2, "unit": "A450 class"},
      {"measurement": "Classification", "setting": "[3]", "value": 1, "unit": "A450 class"},
      {"measurement": "Classification", "setting": "[4]", "value": 1, "unit": "A450 class"}
    ]},
    {"binder": "B5", "values": [
      {"measurement": "Classification", "setting": "[10]", "value": 5, "unit": "A450 class"},
      {"measurement": "Classification", "setting": "[11]", "value": 5, "unit": "A450 class"}
    ]},
    {"binder": "B6", "values": [
      {"measurement": "Classification", "setting": "[10]", "value": 1, "unit": "A450 class"},
      {"measurement": "Classification", "setting": "[11]", "value": 2, "unit": "A450 class"},
      {"measurement": "Classification", "setting": "[12]", "value": 3, "unit": "A450 class"}
    ]},
    {"binder": "B7", "values": [
      {"measurement": "Classification", "setting": "[13]", "value": 1, "unit": "A450 class"},
      {"measurement": "Classification", "setting": "[14]", "value": 2, "unit": "A450 class"},
      {"measurement": "Classification", "setting": "[15]", "value": 1, "unit": "A450 class"},
      {"measurement": "Classification", "setting": "[16]", "value": 3, "unit": "A450 class"},
      {"measurement": "Classification", "setting": "[17]", "value": 2, "unit": "A450 class"},
      {"measurement": "Classification", "setting": "[18]", "value": 1, "unit": "A450 class"}
    ]},
    {"binder": "B8", "values": [
      {"measurement": "Classification", "setting": "[13]", "value": 1, "unit": "A450 class"},
      {"measurement": "Classification", "setting": "[14]", "value": 2, "unit": "A450 class"},
      {"measurement": "Classification", "setting": "[15]", "value": 1, "unit": "A450 class"},
      {"measurement": "Classification", "setting": "[16]", "value": 2, "unit": "A450 class"},
      {"measurement": "Classification", "setting": "[12]", "value": 1, "unit": "A450 class"},
      {"measurement": "Classification", "setting": "[17]", "value": 2, "unit": "A450 class"},
      {"measurement": "Classification", "setting": "[18]", "value": 1, "unit": "A450 class"}
    ]},
    {"binder": "B9", "values": [
      {"measurement": "Classification", "setting": "[8]", "value": 3, "unit": "A450 class"},
      {"measurement": "Classification", "setting": "[9]", "value": 3, "unit": "A450 class"},
      {"measurement": "Classification", "setting": "[7]; remark: other sources report otherwise", "value": 1, "unit": "A450 class"}
    ]}
  ]
}
